Laboratory results: patent US20030166587

Test system: IKK-phosphorylated IκBα in the IκBα/NF-κB complex
Sequence (chain, as listed by the source): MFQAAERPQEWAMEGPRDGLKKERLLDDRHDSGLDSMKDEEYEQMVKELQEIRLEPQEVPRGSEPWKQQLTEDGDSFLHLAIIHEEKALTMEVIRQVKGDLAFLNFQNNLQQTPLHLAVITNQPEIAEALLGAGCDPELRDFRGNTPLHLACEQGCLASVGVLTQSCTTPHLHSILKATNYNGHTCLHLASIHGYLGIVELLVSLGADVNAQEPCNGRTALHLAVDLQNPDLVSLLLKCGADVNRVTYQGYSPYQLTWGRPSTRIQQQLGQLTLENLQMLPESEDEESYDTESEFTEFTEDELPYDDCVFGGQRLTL

Drosophila Slimb protein, FLAG-tagged
in vitro ubiquitination of pIκBα in the presence of E1 and E2 (UBC5C), efficiency against human and mouse β-TrCP (fold less efficient): > 10
